Tested on: human keratinocyte culture
Assay: Filopodia formation in human keratinocyte culture (rhodamine-phalloidin staining, fluorescence microscopy)
Type: cell-based
Settings: human keratinocytes
Method: Table 2 indicates the intensity of filopodia formation (number and surface area) in vitro in four keratinocyte cultures under four operating conditions, after treatment with: • a solvent, • HB-EGF (heparin-binding epidermal growth factor), • Picrorhiza kurroa extract obtained without hydrolysis, and • Picrorhiza kurroa extract obtained following hydrolysis.
The test is performed using a human keratinocyte culture divided into four batches. Cells are treated for 1 h with the products to be tested, fixed in 4% formalin, and then stained with rhodamine-conjugated α-phalloidin (α-phalloidin has high affinity for actin filaments, and its conjugation to rhodamine makes actin filaments fluorescent [540 nm; 565 nm]). The cell morphology is then analyzed under a fluorescence microscope (FIG. 2). • A, solvent, negative (no stimulation); • B, HB-EGF (heparin-binding epidermal growth factor), reference epidermal trophic factor, 5 ng/ml; • C, Picrorhiza kurroa extract obtained without hydrolysis, 100 μg/ml; • D, Picrorhiza kurroa extract obtained following hydrolysis, 100 μg/ml.

B1: HB-EGF: heparin-binding epidermal growth factor, reference epidermal trophic factor, positive control (protein, UniProt Q99075 63-148, looked up)
Heparin-binding EGF-like …: DLQEADLDLLRVTLSSKPQALATPNKEEHGKRKKKGKGLGKKRDPCLRKYKDFCIHGECKYVKELRAPSCICHPGYHGERCHGLSL
5 ng/ml, 1 h treatment
  Visual evaluation of the production of filopodia (scale from 0 to 3): 3
HB-EGF 5 ng/ml, extracts 100 μg/ml, 1 h
  Intensity of filopodia formation (effect in words): intense effect

Reference: patent US20260158095A1, “PLANT EXTRACT AND USE THEREOF IN TOPICAL COMPOSITIONS” (TERM HELVET SA, priority 2021, published 2026)
